From US20150086555A1 (THERACLONE SCIENCES, published 2015)

B1: TCN-533 (5256_A17a) (antibody, V domains shown)
VH: QVQLVQSGADVKKPGSSVTVSCKASGGSFSNYGINWVRQAPGQGLEWMGGIIPLINAPNYAPKFQGRVTITADMFSNIVSLQLTSLRTDDTAVYYCARRKMTTAIDYWGQGTLVTVSS
VL: QPVLTQPPSASASLGASVTLTCTLSSAYSNYKVDWYQQRPGKGPRFVMRVGTGGIVGSKGDGIPDRFSVLGSGLNRYLTIKNIQEEDESDYHCGADHGSGSNFVSPYVFGGGTKLTVL
B2: TCN-533 (5256_A17a) (antibody, V domains shown)
VH: B1 VH
VL: B1 VL
B3: TCN-533 (5256_A17a) (antibody, V domains shown)
VH: B1 VH
VL: B1 VL
B4: TCN-560 (5084_P10) (antibody, V domains shown)
VH: EVQLVESGGGLVQPGGSLRLSCAASGFIFRNYWMSWVRQAPGKGLEWVANIKQDGREKYYVDSLRGRVNISRDNAENSLYLHMNSLRVEDTAVYFCARARMVVVTGDGFDVWGHGTMVTVSS
VL: DIQMTQSPSSLSASVGDRVTITCRASQNIKRYFNWYQQKPGKAPKLLIYAASNLENGVPSRFSGSGSGTDFTLTISSLQPEDFATYYCQQSFSKSWTFGQGTNVDIK
B5: TCN-556 (5089_K12) (antibody, V domains shown)
VH: QVQLVQSGAEVKKPGASVKVSCKASGYTFIGYDMHWVRQAPGQGLEWMGWINAKRGGTNYAQKFQGRVTMTRDTSISTAYMELNSLRSDDTAVYYCARGVGSRTTIFGVLNPEFDYWGQGTLVTVSS
VL: QSALTQPPSASGSPGQSVTISCTGSSSDVGGYDYVSWYQQHPGKAPKLLIYEVTKRPSGVPDRFSGSKSGNTASLTVSGLQAEDEADYYCSSYAGNYNHVFGPGTKVTVL
B6: TCN-556 (5089_K12) (antibody, V domains shown)
VH: B5 VH
VL: B5 VL

Assays:
[1] = biological target: recombinant soluble homotrimeric HA of A/common magpie/Hong Kong/5052/07 (H5N1) (Influenza A virus A/common magpie/Hong …); test: trimeric HA microarray, transfection supernatant set 3
[2] = biological target: recombinant soluble homotrimeric HA of A/common magpie/Hong Kong/5052/07 (H5N1) (Influenza A virus A/common magpie/Hong …); test: HA microarray, BCC supernatant
[3] = biological target: recombinant homotrimeric HA A/common magpie/Hong Kong/5052/07 H5N1 (Influenza A virus A/common magpie/Hong …); test: protein microarray, purified IgG, trimeric HA
[4] = biological target: recombinant soluble homotrimeric HA, A/common magpie/Hong Kong/5052/07 H5N1 (Influenza A virus A/common magpie/Hong …); test: microarray, transfection SN IgG, trimeric HA

Row | Binder | Trimeric HA Binding: RLU [3] | Trimeric HA Binding: RLU [4] | further results
1 | B1 | – | – | Trimeric HA Binding: RLU [1]: 25200 RLU
2 | B2 | – | – | Trimeric HA Binding: RLU [2]: 44500 RLU
3 | B3 | 19000 RLU | – | –
4 | B4 | – | 30500 RLU | –
5 | B5 | – | 20100 RLU | –
6 | B6 | 25600 RLU | – | –
